This note sets out measurements from PMC3741642.

For the series, the target named is T1, hEndoV (FLJ35220, human endonuclease V) (Homo sapiens, UniProt Q8N8Q3 1-282).
T1 sequence: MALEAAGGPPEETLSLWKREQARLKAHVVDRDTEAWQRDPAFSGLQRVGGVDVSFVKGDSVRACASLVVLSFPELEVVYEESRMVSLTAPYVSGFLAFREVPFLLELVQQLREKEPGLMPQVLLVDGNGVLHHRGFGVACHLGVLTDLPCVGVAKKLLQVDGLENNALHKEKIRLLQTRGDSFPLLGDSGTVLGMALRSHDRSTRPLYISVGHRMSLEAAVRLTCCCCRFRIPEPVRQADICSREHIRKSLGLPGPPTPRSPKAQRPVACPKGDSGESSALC
The experiment in a line: EMSA; 5 mM CaCl2; EMSA: 0.2 nM 32P substrate, 10 mM HEPES-KOH pH 8.0, 1 mM DTT, 2% glycerol, 5 mM CaCl2, 4 °C 30 min; nondenaturing 8% PAGE. For orientation: A gel shift assay detects complexes by their altered migration in electrophoresis.

B1: dsRNA without inosine (dsRNA)
RNA 1: CUGUAUGAUGAAGAUGCUGAC
RNA 2: GUCAGCAUCUUCAUCAUACAG
For the molecule B1, the binding result is “binds”.
